Laboratory results published in the supplement of paper PMC7125110.
± gives the standard error. For part of these data: This sample holds only a part of the variants without activity.

B1: glmS ribozyme (parent)
chain: AUAAAAGCGCCAGAACUACAGAAAUGUAGUUGACGAGGAGGAGGUUUAUCGAAUUUUCGGCGGAUGCCUCCAAA

What was measured:
Conditions in all cases: with glucosamine-6-phosphate
[1] = variants of: B1; experiment: self-cleavage kobs at 40 uM GlcN6P; higher = faster cleavage; RNA array
Summary of the method: (§1)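 Sequenced MiSeq chips were the platform: E. coli RNA polymerase transcribed barcoded ribozyme variants on them in situ, and a hybridised Cy3 probe tracked these at 37 °C. After glucosamine-6-phosphate (40 μM to 10 mM) in HEPES/KCl/Mg(OAc)2 buffer was flowed in, tiles were imaged over ~14 h. Signals normalised to baseline and to non-cleaving reference variants were reduced to per-tile medians and fit to one- or two-exponential decays to obtain kobs. kcat and KM were derived through weighted Michaelis–Menten fits across concentrations.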

[2] = variants of: B1; experiment: self-cleavage kobs at 640 uM GlcN6P; higher = faster cleavage; RNA array
Summary of the method: as §1

[3] = variants of: B1; experiment: self-cleavage kobs at 10000 uM GlcN6P; higher = faster cleavage; RNA array
Summary of the method: as §1

[4] = variants of: B1; experiment: KM; higher = weaker cofactor use; RNA array
Summary of the method: as §1

[5] = variants of: B1; experiment: self-cleavage kobs at 160 uM GlcN6P; higher = faster cleavage; RNA array
Summary of the method: as §1

[6] = variants of: B1; experiment: self-cleavage kobs at 2500 uM GlcN6P; higher = faster cleavage; RNA array
Summary of the method: as §1

[7] = variants of: B1; experiment: kcat; higher = faster cleavage; RNA array
Summary of the method: as §1

## A6G C10U G43C
[1]
  self-cleavage kobs at 40 uM GlcN6P: < 1e-05 s⁻¹
[2]
  self-cleavage kobs at 640 uM GlcN6P: < 1e-05 s⁻¹

## A6C G29U C34U U47G C58G C70G
[1]
  self-cleavage kobs at 40 uM GlcN6P: 0.000135 ± 5e-05 s⁻¹
[2]
  self-cleavage kobs at 640 uM GlcN6P: 0.000686 ± 0.0002 s⁻¹
[3]
  self-cleavage kobs at 10000 uM GlcN6P: 0.000144 ± 3.9e-05 s⁻¹

## G29A A64U
[4]
  KM: 593 ± 20 µM

## A6C C10G
[1]
  self-cleavage kobs at 40 uM GlcN6P: < 1e-05 s⁻¹
[5]
  self-cleavage kobs at 160 uM GlcN6P: < 1e-05 s⁻¹
[2]
  self-cleavage kobs at 640 uM GlcN6P: < 1e-05 s⁻¹
[3]
  self-cleavage kobs at 10000 uM GlcN6P: < 1e-05 s⁻¹

## A6G C10G G13U C16G U54G U57G
[1]
  self-cleavage kobs at 40 uM GlcN6P: < 1e-05 s⁻¹
[3]
  self-cleavage kobs at 10000 uM GlcN6P: < 1e-05 s⁻¹

## A6U C10A G41C U46A C70A
[1]
  self-cleavage kobs at 40 uM GlcN6P: < 1e-05 s⁻¹
[6]
  self-cleavage kobs at 2500 uM GlcN6P: < 1e-05 s⁻¹
[3]
  self-cleavage kobs at 10000 uM GlcN6P: < 1e-05 s⁻¹

## A6G C71G
[1]
  self-cleavage kobs at 40 uM GlcN6P: < 1e-05 s⁻¹
[5]
  self-cleavage kobs at 160 uM GlcN6P: < 1e-05 s⁻¹
[2]
  self-cleavage kobs at 640 uM GlcN6P: < 1e-05 s⁻¹
[6]
  self-cleavage kobs at 2500 uM GlcN6P: < 1e-05 s⁻¹

## A6G U30C
[1]
  self-cleavage kobs at 40 uM GlcN6P: < 1e-05 s⁻¹
[5]
  self-cleavage kobs at 160 uM GlcN6P: < 1e-05 s⁻¹

## A6U G35C U54A
[1]
  self-cleavage kobs at 40 uM GlcN6P: < 1e-05 s⁻¹

## A6C C34A
[1]
  self-cleavage kobs at 40 uM GlcN6P: < 1e-05 s⁻¹
[5]
  self-cleavage kobs at 160 uM GlcN6P: < 1e-05 s⁻¹
[2]
  self-cleavage kobs at 640 uM GlcN6P: < 1e-05 s⁻¹
[6]
  self-cleavage kobs at 2500 uM GlcN6P: < 1e-05 s⁻¹
[3]
  self-cleavage kobs at 10000 uM GlcN6P: < 1e-05 s⁻¹

## A39G C71U
[4]
  KM: 370 ± 140 µM
[1]
  self-cleavage kobs at 40 uM GlcN6P: 0.00144 ± 0.00017 s⁻¹
[5]
  self-cleavage kobs at 160 uM GlcN6P: 0.00396 ± 0.00059 s⁻¹
[2]
  self-cleavage kobs at 640 uM GlcN6P: 0.00783 ± 0.0012 s⁻¹
[6]
  self-cleavage kobs at 2500 uM GlcN6P: 0.0119 ± 0.0027 s⁻¹
[3]
  self-cleavage kobs at 10000 uM GlcN6P: 0.0284 ± 0.0069 s⁻¹

## A6U A33U A64G
[1]
  self-cleavage kobs at 40 uM GlcN6P: < 1e-05 s⁻¹
[6]
  self-cleavage kobs at 2500 uM GlcN6P: < 1e-05 s⁻¹

## A6C G32C
[1]
  self-cleavage kobs at 40 uM GlcN6P: < 1e-05 s⁻¹
[5]
  self-cleavage kobs at 160 uM GlcN6P: < 1e-05 s⁻¹
[6]
  self-cleavage kobs at 2500 uM GlcN6P: < 1e-05 s⁻¹
[3]
  self-cleavage kobs at 10000 uM GlcN6P: < 1e-05 s⁻¹

## A6G A12G G66A
[1]
  self-cleavage kobs at 40 uM GlcN6P: < 1e-05 s⁻¹
[2]
  self-cleavage kobs at 640 uM GlcN6P: < 1e-05 s⁻¹

## C68G C70U
[7]
  kcat: 2.04e-05 ± 6.3e-06 s⁻¹
[2]
  self-cleavage kobs at 640 uM GlcN6P: 3.32e-05 ± 1.3e-05 s⁻¹

## A6G G32U U46G
[1]
  self-cleavage kobs at 40 uM GlcN6P: < 1e-05 s⁻¹
[3]
  self-cleavage kobs at 10000 uM GlcN6P: < 1e-05 s⁻¹

## A6G U49G
[1]
  self-cleavage kobs at 40 uM GlcN6P: < 1e-05 s⁻¹
[6]
  self-cleavage kobs at 2500 uM GlcN6P: < 1e-05 s⁻¹

## A6C A52U G60U
[1]
  self-cleavage kobs at 40 uM GlcN6P: < 1e-05 s⁻¹

## A64C C67U
[4]
  KM: 657 ± 190 µM

## A6G A36C G51U
[1]
  self-cleavage kobs at 40 uM GlcN6P: < 1e-05 s⁻¹
[3]
  self-cleavage kobs at 10000 uM GlcN6P: < 1e-05 s⁻¹

## A6C G63A
[1]
  self-cleavage kobs at 40 uM GlcN6P: < 1e-05 s⁻¹
[5]
  self-cleavage kobs at 160 uM GlcN6P: < 1e-05 s⁻¹
[2]
  self-cleavage kobs at 640 uM GlcN6P: < 1e-05 s⁻¹

## A6G G60C
[1]
  self-cleavage kobs at 40 uM GlcN6P: < 1e-05 s⁻¹
[5]
  self-cleavage kobs at 160 uM GlcN6P: < 1e-05 s⁻¹
[2]
  self-cleavage kobs at 640 uM GlcN6P: < 1e-05 s⁻¹
[6]
  self-cleavage kobs at 2500 uM GlcN6P: < 1e-05 s⁻¹

## A6C C11U A33C A36G U47G G59A
[1]
  self-cleavage kobs at 40 uM GlcN6P: < 1e-05 s⁻¹
[2]
  self-cleavage kobs at 640 uM GlcN6P: < 1e-05 s⁻¹

## A6U C10A G40A U46G
[1]
  self-cleavage kobs at 40 uM GlcN6P: < 1e-05 s⁻¹
[3]
  self-cleavage kobs at 10000 uM GlcN6P: < 1e-05 s⁻¹

## A6C C16A
[1]
  self-cleavage kobs at 40 uM GlcN6P: < 1e-05 s⁻¹
[5]
  self-cleavage kobs at 160 uM GlcN6P: < 1e-05 s⁻¹
[2]
  self-cleavage kobs at 640 uM GlcN6P: < 1e-05 s⁻¹
[6]
  self-cleavage kobs at 2500 uM GlcN6P: < 1e-05 s⁻¹
